The record followed here is publication PMC4208696 (Biophysical chemistry, 2014).

By Kd is commonly meant the free concentration of one partner at which half of the binding sites on the other are occupied at equilibrium, for simple one-to-one binding. High values mean lower affinity, low ones higher affinity.

Like-named read-outs stand apart in the source and are kept apart here.

What all share (assay): fluorescence polarisation
For orientation: Polarisation of emitted light reports the rotation of a fluorescent probe.

Assay [1] addresses T1, full-length mammalian calmodulin (CaM_(1–148)) (mammalian (no species named), UniProt P0DP23 1-149).
For assay [2], the target named is T2, CaM C-domain fragment, residues 76 to 148 (CaM_(76–148)) (mammalian (no species named), UniProt P0DP23 77-149).
For assay [3], the target named is T3, CaM N-domain fragment, residues 1 to 80 (CaM_(1–80)) (mammalian (no species named), UniProt P0DP23 2-81).
The target of assay [4] is T1, full-length mammalian calmodulin …. The source holds these as a separate data set.
Assay [5] addresses T2, CaM C-domain fragment, residues 76 to …. This is another data set of the same source.
The target in assay [6] is T3, CaM N-domain fragment, residues 1 to 80 …. This is another data set of the same source.

B1: Fl–hRyR1(1975–1999)p: hRyR1(1975–1999)p with a 5,6-carboxyfluorescein moiety at the N-terminus (peptide)
peptide: {5,6‑carboxyfluorescein}-SRYGLLIKAFSMTAAETARRTREFR-NH2
Consider B1, for which the Kd in assay [1] is approximately 850 µM; in assay [2], approximately 650 µM; in assay [3], approximately 7000 µM; in assay [4], 0.66 ± 0.01 µM; in assay [5] it was 9.21 ± 0.82 µM; in assay [6], 12.5 ± 1.95 µM.

B2: Fl–hRyR1(3614–3643)p: hRyR1(3614–3643)p with a 5,6-carboxyfluorescein moiety at the N-terminus (peptide)
peptide: {5,6‑carboxyfluorescein}-KSKKAVWHKLLSKQRRRAVVACFRMTPLYN-NH2
Regarding B2, the Kd in assay [1] was 6.79 ± 3.05 µM; in assay [2] it was 24.9 ± 4.27 µM; in assay [3], approximately 1500 µM; in assay [4], not above 0.001 µM; in assay [5], not above 0.01 µM; in assay [6], 2.5 ± 0.83 µM.
